Reference: patent US20110151538A1

Molecular target: CBM-Coh (carbohydrate-binding module and type-I cohesin from C. thermocellum CipA) (Clostridium thermocellum)
Experiment: ELISA, plates coated with CBM-Coh; wtDoc-Xyn in 10 mM EDTA against wtDoc-Xyn in 1 mM CaCl2

wtDoc-Xyn (wild-type C. thermocellum Cel48S dockerin fused to the N-terminus of G. stearothermophilus xylanase T-6, C-terminal His tag)
ΔΔG (in EDTA relative to Ca2+): 2.01 kcal/mol
